According to patent US20260008815A1, “CYCLIC PEPTIDE OR SALT THEREOF, AND USES THEREOF” (FUJIFILM Corporation, priority 2023, published 2026):
Bridge positions count the residues as written; N and C are the ends. Ends that are not written are not given here. COCH2 = acetyl group that carries the bridge

Columns and labels:
[1] = molecular target: T1, Recombinant Human FGFR2 alpha (IIIc) Fc Chimera Protein (Homo sapiens, UniProt P21802); test: SPR binding affinity of chemically synthesized cyclic peptide to immobilized FGFR; conditions: SPR binding amount at 10 nmol/L cyclic peptide, 25° C., per one molecule of FGFR; chemically synthesized product
T1 construct: Fc (chimera); purchased R&D systems 712-FR-050
Experimental: The binding affinity of the cyclic peptide to FGFR was evaluated using a surface plasmon resonance (SPR) method.
(§1) A CM5 sensor chip (Cytiva, 29149603) was set in Biacore-T200 (manufactured by Cytiva) which is a surface plasmon resonance device, and an HBS-EP buffer (Cytiva, BR100826) was added as a running buffer at a flow rate of 10 μL/min to equilibrate the flow channel. Next, 70 μL of a mixed aqueous solution of 0.2 mol/L 1-(3-dimethylaminopropyl)-3-ethylcarbodiimide (EDC) and 0.05 mol/L N-hydroxysuccinimide (NHS) was added to activate the sensor chip. Then, Recombinant Human FGFR2 alpha (IIIc) Fc Chimera Protein CF (R&D systems, 712-FR-050) prepared at 50 nmol/L in an Acetate 4.5 buffer (Cytiva, BR100350) was added thereto to perform immobilization at about 5000 RU. Thereafter, the blocking treatment was performed with an ethanolamine solution. In addition, in another flow channel of the same sensor chip, blocking treatment was performed immediately after activation without immobilizing FGFR.
A cyclic peptide diluted to 10 nmol/L using HBS-EP was added to each flow channel of the FGFR-immobilized sensor chip produced above at 25° C. for 10 minutes, then HBS-EP was allowed to flow as a running buffer for 30 minutes, and the binding of the cyclic peptide to FGFR was measured. Thereafter, a regeneration treatment of removing the bound cyclic peptide was performed by repeating the flow of a regeneration liquid in which sodium chloride powder was dissolved in Glysine 1.5 (Cytiva, BR100354) to a final concentration of 0.15 mol/L for 1 minute in each flow channel twice. The binding amount of the cyclic peptide was evaluated from the difference between the measured value of Biacore-T200 in the flow channel in which FGFR was immobilized and the measured value of Biacore-T200 in the flow channel in which FGFR was not immobilated, in a case where a 10 nmol/L cyclic peptide was allowed to flow.
The binding amount of the cyclic peptide evaluated above was normalized to the binding amount of the cyclic peptide molecules per one molecule of FGFR using the molecular weights of the cyclic peptide and FGFR, and the binding affinity to FGFR was evaluated according to the following evaluation criteria. The evaluation result preferably satisfies the evaluation criteria A, B, or C.

[2] = molecular target: T2, FGFR1 Protein, Human, Recombinant (His Tag) (Homo sapiens, UniProt P11362); test: SPR FGFR versatility, peptide immobilized; conditions: SPR binding amount at 1 μmol/L FGFR, 25° C., per one molecule of immobilized cyclic peptide
T2 construct: His; purchased Sino Biological 10616-H08H
Experimental: (§2) The binding of the cyclic peptide to various types of FGFRs was evaluated using a surface plasmon resonance (SPR) method.
as §1, with “a cyclic peptide” for “Recombinant Human FGFR2 alpha (IIIc) Fc Chimera Protein CF (R&D systems, 712-FR-050)”, “to 2 mg/mL” for “at 50 nmol/L”, “HBS-EP” for “an Acetate 4.5”, “buffer” for “buffer (Cytiva, BR100350)”, “200” for “5000”
(§3) After various FGFRs (FGFR1 Protein, Human, Recombinant (His Tag) (Sino Biological, 10616-H08H), FGFR2 Protein, Human, Recombinant (His Tag) (Sino Biological, 10824-H08H), FGFR3 Protein, Human, Recombinant (ECD, His Tag) (Sino Biological, 16044-H08H), FGFR4 Protein, Human, Recombinant (His Tag) (Sino Biological, 10538-H08H)) diluted with HBS-EP to 1 μmol/L at 25° C. was added to each flow channel of the cyclic peptide-immobilized sensor chip prepared above, for 10 minutes, HBS-EP was allowed to flow as a running buffer for 30 minutes, and the binding of various FGFRs to the cyclic peptide was measured. Thereafter, a regeneration treatment of removing the bound FGFR was performed by repeating the flow of a regeneration liquid in which sodium chloride (final concentration: 0.4 mol/L) and a sodium dodecyl sulfate aqueous solution (mixed concentration: 1%, final concentration: 0.2%) were dissolved in Glysine 1.5 (Cytiva, BR100354) for 1 minute in each flow channel twice. The binding amount of the cyclic peptide was evaluated from the difference between the measured value of Biacore-T200 in the flow channel in which the cyclic peptide was immobilized and the measured value of Biacore-T200 in the flow channel in which the cyclic peptide was not immobilized, in a case where 1 μmol/L FGFR was allowed to flow.
(§4) The binding amount of FGFR evaluated above was normalized to the binding amount of FGFR molecules per one molecule of the cyclic peptide using the molecular weights of the cyclic peptide and FGFR, and the binding affinity to FGFR was evaluated according to the following evaluation criteria. The evaluation result preferably satisfies the evaluation criteria A, B, or C.

[3] = molecular target: T3, FGFR4 Protein, Human, Recombinant (His Tag) (Homo sapiens, UniProt P22455); test: SPR FGFR versatility, peptide immobilized; conditions: SPR binding amount at 1 μmol/L FGFR, 25° C., per one molecule of immobilized cyclic peptide
T3 construct: His; purchased Sino Biological 10538-H08H
Experimental: as §2
as §1, with “a cyclic peptide” for “Recombinant Human FGFR2 alpha (IIIc) Fc Chimera Protein CF (R&D systems, 712-FR-050)”, “to 2 mg/mL” for “at 50 nmol/L”, “HBS-EP” for “an Acetate 4.5”, “buffer” for “buffer (Cytiva, BR100350)”, “200” for “5000”
as §3, §4

[4] = molecular target: T4, FGFR3 Protein, Human, Recombinant (ECD, His Tag) (Homo sapiens, UniProt P22607); test: SPR FGFR versatility, peptide immobilized; conditions: SPR binding amount at 1 μmol/L FGFR, 25° C., per one molecule of immobilized cyclic peptide
T4 construct: FGFR3 Protein, Human, Recombinant (ECD, His Tag) (Sino Biological, 16044-H08H); His; purchased Sino Biological 16044-H08H
T4 sequence (P22607 23-375 limits assumed): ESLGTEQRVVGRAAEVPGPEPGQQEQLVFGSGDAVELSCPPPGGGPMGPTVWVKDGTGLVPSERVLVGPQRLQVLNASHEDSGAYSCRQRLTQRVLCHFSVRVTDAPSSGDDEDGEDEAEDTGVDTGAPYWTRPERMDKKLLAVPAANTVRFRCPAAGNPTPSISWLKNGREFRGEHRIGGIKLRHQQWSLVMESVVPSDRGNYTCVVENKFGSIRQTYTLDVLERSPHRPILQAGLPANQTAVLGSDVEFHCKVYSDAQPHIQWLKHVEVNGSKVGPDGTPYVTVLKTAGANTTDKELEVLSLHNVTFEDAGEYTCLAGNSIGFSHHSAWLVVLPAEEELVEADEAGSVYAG
Experimental: as §2
as §1, with “a cyclic peptide” for “Recombinant Human FGFR2 alpha (IIIc) Fc Chimera Protein CF (R&D systems, 712-FR-050)”, “to 2 mg/mL” for “at 50 nmol/L”, “HBS-EP” for “an Acetate 4.5”, “buffer” for “buffer (Cytiva, BR100350)”, “200” for “5000”
as §3, §4

[5] = molecular target: T5, FGFR2 Protein, Human, Recombinant (His Tag) (Homo sapiens, UniProt P21802); test: SPR FGFR versatility, peptide immobilized; conditions: SPR binding amount at 1 μmol/L FGFR, 25° C., per one molecule of immobilized cyclic peptide
T5 construct: His; purchased Sino Biological 10824-H08H
Experimental: as §2
as §1, with “a cyclic peptide” for “Recombinant Human FGFR2 alpha (IIIc) Fc Chimera Protein CF (R&D systems, 712-FR-050)”, “to 2 mg/mL” for “at 50 nmol/L”, “HBS-EP” for “an Acetate 4.5”, “buffer” for “buffer (Cytiva, BR100350)”, “200” for “5000”
as §3, §4

[6] = Molecular stability after reducing agent (DTT) treatment, LC; type: physicochemical; conditions: residual rate after DTT aqueous solution, room temperature, 1 hour
Experimental: The molecular stability of the cyclic peptide was evaluated by analyzing an aqueous solution of the cyclic peptide treated with a reducing agent by liquid chromatography (LC).
The reducing agent treatment was performed under the following conditions based on the concentration of glutathione contained in the cells. 25 μL of a 0.2 mg/mL cyclic peptide aqueous solution was prepared, 58.8 μL of a 12.6 mmol/L DTT aqueous solution was added to the aqueous solution, and the mixture was incubated at room temperature for 1 hour to obtain an aqueous solution of the cyclic peptide treated with a reducing agent. The DTT aqueous solution was used by diluting a 1 mol/L (+−)-dithiothreitol (DTT) solution (FUJIFILM Wako Pure Chemical Corporation, 044-33871) with water. The total area of all the peaks in LC/MS of the cyclic peptide before the reducing agent treatment was set to 100%, and the proportion of the total area of all the peaks in LC/MS of the aqueous solution of the cyclic peptide treated with the reducing agent was determined to calculate the residual rate of the cyclic peptide, and the molecular stability was evaluated according to the following evaluation criteria. The evaluation result preferably satisfies the evaluation criteria A, B, or C.
The LC used for the evaluation of molecular stability was set to the following conditions. • LC device: Prominence series (pump, column oven, autosampler, detector) (manufactured by Shimadzu Corporation) • Detector: photodiode array detector (SPD-M20A), measurement wavelength of 280 nm • Column: TSKgel ODS-100V, inner diameter of 4.6 mm×length of 150 mm, particle diameter of 5 μm (manufactured by Tosoh Corporation) • Eluent A: solution containing 0.1% trifluoroacetic acid as solute, and solvent is 100% water • Eluent B: solution containing 0.1% trifluoroacetic acid as solute, and solvent is 100% acetonitrile • Flow rate: 1.0 mL/min • Injection amount: 25 μL • Gradient: 20% to 50%: Eluent B (0 to 15 minutes), 100%: Eluent B (15 minutes) • Column temperature: 40° C.

T1 sequence (P21802 with tags, fused parts or gaps limits assumed): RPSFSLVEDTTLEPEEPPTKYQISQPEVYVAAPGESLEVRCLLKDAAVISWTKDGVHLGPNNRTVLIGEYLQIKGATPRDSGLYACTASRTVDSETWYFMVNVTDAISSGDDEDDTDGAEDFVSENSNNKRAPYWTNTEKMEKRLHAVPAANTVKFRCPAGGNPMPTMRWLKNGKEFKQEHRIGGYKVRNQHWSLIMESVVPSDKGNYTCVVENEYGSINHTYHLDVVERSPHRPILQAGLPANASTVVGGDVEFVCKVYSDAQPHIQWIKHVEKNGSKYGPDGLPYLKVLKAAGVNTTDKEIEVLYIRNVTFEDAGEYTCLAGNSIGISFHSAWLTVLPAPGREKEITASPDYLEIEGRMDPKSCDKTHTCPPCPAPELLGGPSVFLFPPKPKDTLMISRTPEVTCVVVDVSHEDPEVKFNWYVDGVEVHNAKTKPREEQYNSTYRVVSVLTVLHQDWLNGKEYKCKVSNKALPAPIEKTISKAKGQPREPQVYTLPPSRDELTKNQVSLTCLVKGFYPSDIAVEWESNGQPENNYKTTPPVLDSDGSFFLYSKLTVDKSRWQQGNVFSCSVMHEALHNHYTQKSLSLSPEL
T3 sequence (P22455 22-802): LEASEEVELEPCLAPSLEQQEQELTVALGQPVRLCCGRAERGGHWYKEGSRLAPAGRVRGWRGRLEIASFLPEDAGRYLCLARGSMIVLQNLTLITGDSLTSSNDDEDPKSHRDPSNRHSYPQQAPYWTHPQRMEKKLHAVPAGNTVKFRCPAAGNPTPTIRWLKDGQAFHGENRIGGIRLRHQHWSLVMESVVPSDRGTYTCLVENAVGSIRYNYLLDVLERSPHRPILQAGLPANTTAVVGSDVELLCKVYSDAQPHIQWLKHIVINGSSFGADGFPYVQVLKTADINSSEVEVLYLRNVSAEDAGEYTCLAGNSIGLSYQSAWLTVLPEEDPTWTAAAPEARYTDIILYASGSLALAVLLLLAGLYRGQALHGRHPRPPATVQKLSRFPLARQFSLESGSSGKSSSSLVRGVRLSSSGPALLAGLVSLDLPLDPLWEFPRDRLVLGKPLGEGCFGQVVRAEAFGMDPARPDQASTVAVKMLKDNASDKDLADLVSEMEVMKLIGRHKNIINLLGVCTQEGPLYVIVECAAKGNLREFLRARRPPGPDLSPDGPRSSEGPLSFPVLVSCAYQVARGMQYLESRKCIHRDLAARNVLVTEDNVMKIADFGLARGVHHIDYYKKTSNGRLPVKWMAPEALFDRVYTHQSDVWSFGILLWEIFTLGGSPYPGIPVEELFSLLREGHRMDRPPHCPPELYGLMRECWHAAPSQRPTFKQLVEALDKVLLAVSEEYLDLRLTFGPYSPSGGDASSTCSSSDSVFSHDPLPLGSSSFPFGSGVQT
T5 sequence (P21802 22-821): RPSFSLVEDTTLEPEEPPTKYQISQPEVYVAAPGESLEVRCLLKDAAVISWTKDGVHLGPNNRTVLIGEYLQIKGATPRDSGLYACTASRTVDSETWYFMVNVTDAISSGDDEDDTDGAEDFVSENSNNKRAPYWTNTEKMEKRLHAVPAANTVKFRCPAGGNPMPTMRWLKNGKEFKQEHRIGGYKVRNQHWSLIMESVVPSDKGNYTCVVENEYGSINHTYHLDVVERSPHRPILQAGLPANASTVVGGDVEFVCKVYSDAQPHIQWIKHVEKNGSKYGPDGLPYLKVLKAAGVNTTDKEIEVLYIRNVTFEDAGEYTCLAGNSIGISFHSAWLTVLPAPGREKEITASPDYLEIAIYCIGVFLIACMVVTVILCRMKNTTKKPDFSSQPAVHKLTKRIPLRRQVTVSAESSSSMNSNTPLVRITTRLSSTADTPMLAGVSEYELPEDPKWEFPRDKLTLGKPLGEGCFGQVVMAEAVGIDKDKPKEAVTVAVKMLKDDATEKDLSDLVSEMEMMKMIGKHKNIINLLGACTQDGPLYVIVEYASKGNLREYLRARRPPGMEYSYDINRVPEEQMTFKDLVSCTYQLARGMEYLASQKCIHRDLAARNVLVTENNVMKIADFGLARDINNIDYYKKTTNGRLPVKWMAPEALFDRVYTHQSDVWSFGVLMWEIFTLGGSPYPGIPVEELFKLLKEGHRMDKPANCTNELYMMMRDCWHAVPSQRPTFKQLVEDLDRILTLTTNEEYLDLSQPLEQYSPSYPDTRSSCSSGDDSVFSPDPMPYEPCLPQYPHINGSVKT
T2 sequence (P11362 22-822): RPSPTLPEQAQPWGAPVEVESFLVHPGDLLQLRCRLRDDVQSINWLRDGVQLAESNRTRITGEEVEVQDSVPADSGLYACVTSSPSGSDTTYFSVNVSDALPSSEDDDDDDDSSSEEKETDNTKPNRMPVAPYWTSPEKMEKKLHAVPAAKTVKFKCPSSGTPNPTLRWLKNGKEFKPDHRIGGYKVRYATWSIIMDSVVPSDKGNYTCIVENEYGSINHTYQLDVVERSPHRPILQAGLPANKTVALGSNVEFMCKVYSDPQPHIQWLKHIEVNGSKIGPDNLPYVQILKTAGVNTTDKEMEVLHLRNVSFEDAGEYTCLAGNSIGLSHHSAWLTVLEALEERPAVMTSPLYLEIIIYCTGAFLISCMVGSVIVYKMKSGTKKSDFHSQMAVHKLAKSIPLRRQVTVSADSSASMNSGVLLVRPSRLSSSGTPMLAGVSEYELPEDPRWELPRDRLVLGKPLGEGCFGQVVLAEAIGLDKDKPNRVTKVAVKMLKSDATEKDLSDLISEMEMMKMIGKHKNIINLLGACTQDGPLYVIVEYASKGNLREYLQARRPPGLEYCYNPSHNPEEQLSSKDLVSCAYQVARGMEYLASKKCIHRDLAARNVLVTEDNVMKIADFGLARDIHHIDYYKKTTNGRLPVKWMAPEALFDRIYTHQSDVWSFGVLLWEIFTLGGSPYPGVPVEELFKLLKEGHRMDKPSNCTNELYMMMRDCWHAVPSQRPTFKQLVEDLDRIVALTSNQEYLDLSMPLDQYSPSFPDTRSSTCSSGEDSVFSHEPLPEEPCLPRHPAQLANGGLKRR

450 (YCEENYLDPEQYQYFIYFK(COCH2)YKKK; thioether 2-19) [compound 450]
Evaluation result of binding affinity to FGFR [1]: A (The binding amount is 0.7 molecules of the cyclic peptide/one molecule of FGFR or more.) | Evaluation result of binding affinity to FGFR1 [2]: B (The binding amount is 0.01 molecules of FGFR/one molecule of the cyclic peptide or more and less than 0.05 molecules of FGFR/one molecule of the cyclic peptide.) | Evaluation result of binding affinity to FGFR4 [3]: B (The binding amount is 0.01 molecules of FGFR/one molecule of the cyclic peptide or more and less than 0.05 molecules of FGFR/one molecule of the cyclic peptide.) | Evaluation result of binding affinity to FGFR3 [4]: B (The binding amount is 0.01 molecules of FGFR/one molecule of the cyclic peptide or more and less than 0.05 molecules of FGFR/one molecule of the cyclic peptide.) | Evaluation result of binding affinity F GFR2 [5]: A (The binding amount is 0.05 molecules of FGFR/one molecule of the cyclic peptide or more.) | Evaluation result of reductive stability [6]: B (The residual rate of the cyclic peptide is 70% or more and less than 90%)
